From US20130316951A1

Target: platelet glycoprotein (GP) IIb/IIIa on platelets of mouse platelet rich plasma (mouse) (UniProt Q9QUM0)
Test: cell-based or functional assay

platelet glycoprotein (GP) IIb/IIIa on platelets of mouse platelet rich plasma (mouse), sequence (Q9QUM0 32-1033, chain 1 of 2): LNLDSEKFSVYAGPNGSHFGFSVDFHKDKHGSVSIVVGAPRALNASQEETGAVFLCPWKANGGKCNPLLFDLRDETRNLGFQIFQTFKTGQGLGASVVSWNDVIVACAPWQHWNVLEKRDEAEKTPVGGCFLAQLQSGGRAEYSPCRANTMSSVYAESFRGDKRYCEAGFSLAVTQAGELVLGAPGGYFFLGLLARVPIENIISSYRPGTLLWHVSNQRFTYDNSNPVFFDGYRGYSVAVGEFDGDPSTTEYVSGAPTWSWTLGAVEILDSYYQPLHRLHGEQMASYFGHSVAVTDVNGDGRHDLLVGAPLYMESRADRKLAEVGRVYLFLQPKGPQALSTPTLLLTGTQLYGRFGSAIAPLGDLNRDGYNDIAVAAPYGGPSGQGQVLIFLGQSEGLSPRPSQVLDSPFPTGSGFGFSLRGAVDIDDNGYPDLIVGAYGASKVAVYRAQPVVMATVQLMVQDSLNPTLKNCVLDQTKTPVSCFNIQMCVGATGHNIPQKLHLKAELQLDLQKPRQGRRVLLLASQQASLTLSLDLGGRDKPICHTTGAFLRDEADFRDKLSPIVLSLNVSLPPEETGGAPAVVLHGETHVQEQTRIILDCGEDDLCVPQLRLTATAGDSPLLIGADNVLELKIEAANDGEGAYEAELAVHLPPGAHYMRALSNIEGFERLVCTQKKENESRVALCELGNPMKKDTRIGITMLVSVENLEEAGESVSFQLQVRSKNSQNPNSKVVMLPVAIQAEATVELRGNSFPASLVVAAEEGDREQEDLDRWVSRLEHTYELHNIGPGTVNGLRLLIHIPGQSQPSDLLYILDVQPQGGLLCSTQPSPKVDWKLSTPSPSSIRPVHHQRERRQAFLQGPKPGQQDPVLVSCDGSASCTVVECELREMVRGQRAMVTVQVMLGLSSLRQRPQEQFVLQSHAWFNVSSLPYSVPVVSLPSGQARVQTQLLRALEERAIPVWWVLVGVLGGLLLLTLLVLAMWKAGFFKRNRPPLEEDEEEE
platelet glycoprotein (GP) IIb/IIIa on platelets of mouse platelet rich plasma (mouse), sequence (O54890 26-787, chain 2 of 2, further chain): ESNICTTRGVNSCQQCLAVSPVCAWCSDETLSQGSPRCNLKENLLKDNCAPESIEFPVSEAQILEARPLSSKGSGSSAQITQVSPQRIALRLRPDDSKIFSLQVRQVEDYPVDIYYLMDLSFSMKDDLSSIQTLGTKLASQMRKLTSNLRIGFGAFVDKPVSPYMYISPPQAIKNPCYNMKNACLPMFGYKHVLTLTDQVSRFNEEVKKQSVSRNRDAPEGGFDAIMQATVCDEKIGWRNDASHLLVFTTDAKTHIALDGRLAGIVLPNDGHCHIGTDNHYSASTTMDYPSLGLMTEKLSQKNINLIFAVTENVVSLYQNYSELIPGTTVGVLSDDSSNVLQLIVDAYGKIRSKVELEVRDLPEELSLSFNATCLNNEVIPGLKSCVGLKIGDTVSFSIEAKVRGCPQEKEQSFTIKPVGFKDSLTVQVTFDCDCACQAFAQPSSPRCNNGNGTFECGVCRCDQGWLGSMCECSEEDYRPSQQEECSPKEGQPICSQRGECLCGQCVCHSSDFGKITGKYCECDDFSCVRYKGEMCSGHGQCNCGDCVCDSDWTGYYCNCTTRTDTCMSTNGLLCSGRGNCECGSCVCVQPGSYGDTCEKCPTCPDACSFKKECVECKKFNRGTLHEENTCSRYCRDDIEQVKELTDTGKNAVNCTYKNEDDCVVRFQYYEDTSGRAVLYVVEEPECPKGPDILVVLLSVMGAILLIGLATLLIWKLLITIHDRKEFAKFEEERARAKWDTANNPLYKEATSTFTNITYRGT

Work on “recombinant saxatilin (from UniProt Q9DGH6 1-73) (ligand)” yielded an IC50 of inhibition of ADP-induced platelet aggregation, mouse PRP, aggregometer of 176 nM and a treatment concentration giving a similar level of platelet aggregation inhibition of 0.7 µM.
